Laboratory results published in US20050175608A1 (Kyowa Kirin, published 2005).

Target: T1, BSA-compound 1 (conjugate of the human FGF-8 partial peptide compound 1 with bovine serum albumin) (human, not fully specified; C-terminal cysteine conjugated to BSA through SMCC)
T1 construct: Coated on ELISA plates; the BSA carrier is not written as a chain
T1 peptide: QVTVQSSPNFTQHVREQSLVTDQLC
Test: ELISA, plate coated with BSA-compound 1; positive control
Method: The above-prepared BSA-compound 1 solution was dispensed at a 96-well ELISA plate (manufactured by Greiner) at a concentration of from 0.5 to 1.0 μg/mL in an amount of 50 μL/well, and allowed to stand overnight at 4° C. for adsorption. After washing with PBS, 1% BSA-containing PBS (hereinafter referred to as BSA-PBS) was added in an amount of 100 μL/well and reacted at room temperature for 1 hour to block a remaining active group. After washing each well with 0.05% Tween-containing PBS (hereinafter referred to as Tween-PBS), the culture supernatant or the purified antibody of the tranformants was added in an amount of 50 μL/well, and the reaction was conducted at room temperature for 1 hour. After the reaction, each well was washed with Tween-PBS, a peroxidase-labeled goat anti-human IgG (H & L) antibody solution (manufactured by American Qualex) diluted 3,000 to 6,000 times with BSA-PBS was added as a second antibody solution in an amount of 50 μL/well. The reaction was performed at room temperature for 1 hour. […] Then, absorbance was measured at 415 nm.

B1: anti-FGF-8 neutralizing chimeric antibody KM3334 (antibody, V domains shown)
VH: QVQLQQSGAEVARPGASVKLSCKASGYTFTDYYLNWVKQRSGQGLEWIGEIDPGSDSIYYNENLEGRATLTADKSSSTAYMQLNSLTSEDSAVYFCARYGYSRYDVRFVYWGQGTLVTVST
VL: DVLMTQTPLSLPVSLGDQASISCRSSQSLVHSNGRTYLEWYLQKPGQSPKVLIYKVSNRISGVPDRFSGSGSGTDFTLKISRVEAEDLGVYFCFQGSHVPYTFGGGTKLEIK
notes: expressed in YB2/0 cells; also called human chimeric antibody KM3334
Does B1 bind?
Result: binds
